{"source": "paper PMC4565748", "about": "(Molecular immunology, 2015)"}
{"target": "C3b (Homo sapiens, UniProt P01024)", "sequence (P01024 23-667 limits assumed)": "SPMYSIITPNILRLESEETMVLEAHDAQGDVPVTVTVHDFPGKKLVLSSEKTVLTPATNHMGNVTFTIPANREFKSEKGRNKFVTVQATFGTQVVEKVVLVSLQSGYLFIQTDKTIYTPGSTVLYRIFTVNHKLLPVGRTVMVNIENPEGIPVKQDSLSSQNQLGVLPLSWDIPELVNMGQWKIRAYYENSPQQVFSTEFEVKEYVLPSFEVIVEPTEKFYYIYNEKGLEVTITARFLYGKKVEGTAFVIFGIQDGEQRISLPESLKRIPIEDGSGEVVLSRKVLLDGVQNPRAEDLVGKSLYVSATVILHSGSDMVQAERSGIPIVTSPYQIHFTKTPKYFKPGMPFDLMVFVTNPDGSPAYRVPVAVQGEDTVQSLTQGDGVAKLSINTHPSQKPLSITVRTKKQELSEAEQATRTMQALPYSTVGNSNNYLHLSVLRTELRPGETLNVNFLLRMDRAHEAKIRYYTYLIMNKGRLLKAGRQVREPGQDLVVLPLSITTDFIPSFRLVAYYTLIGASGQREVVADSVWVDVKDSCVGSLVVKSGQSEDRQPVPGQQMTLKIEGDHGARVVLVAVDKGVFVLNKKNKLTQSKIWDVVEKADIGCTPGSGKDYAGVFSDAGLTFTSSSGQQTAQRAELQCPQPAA", "sequence (P01024 749-1663 limits assumed)": "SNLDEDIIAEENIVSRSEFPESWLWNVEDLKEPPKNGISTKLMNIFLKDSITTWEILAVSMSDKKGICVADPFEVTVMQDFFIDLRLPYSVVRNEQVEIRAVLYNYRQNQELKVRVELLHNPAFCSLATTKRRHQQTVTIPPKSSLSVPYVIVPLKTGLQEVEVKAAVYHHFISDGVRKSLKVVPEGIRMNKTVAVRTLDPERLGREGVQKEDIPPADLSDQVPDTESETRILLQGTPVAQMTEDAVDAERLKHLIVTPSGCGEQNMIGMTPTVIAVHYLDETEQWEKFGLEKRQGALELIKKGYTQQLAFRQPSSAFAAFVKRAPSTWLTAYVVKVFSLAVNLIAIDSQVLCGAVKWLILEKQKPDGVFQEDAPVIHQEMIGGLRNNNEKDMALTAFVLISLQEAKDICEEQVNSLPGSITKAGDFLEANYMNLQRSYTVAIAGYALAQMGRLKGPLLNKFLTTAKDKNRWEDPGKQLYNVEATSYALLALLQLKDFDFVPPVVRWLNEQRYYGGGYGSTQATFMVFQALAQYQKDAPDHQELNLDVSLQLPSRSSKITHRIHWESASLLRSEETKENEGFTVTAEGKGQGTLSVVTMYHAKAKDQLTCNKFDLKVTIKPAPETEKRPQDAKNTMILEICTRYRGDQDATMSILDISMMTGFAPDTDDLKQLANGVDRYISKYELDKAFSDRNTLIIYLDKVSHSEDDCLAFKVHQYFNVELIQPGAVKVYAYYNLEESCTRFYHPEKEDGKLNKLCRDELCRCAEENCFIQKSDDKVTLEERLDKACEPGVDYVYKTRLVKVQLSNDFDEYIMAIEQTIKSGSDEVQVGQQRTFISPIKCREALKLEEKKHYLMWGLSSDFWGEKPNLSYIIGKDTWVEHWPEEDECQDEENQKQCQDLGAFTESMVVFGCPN", "test": "SPR direct binding to site-specifically immobilized C3b", "conditions": "SPR kinetic analysis, 1:1 Langmuir model"}
{"molecule": "SCIN-A: full-length staphylococcal complement inhibitor SCIN-A, Staphylococcus aureus strain Mu50 (protein) STSLPTSNEYQNEKLANELKSLLDELNVNELATGSLNTYYKRTIKISGQKAMYALKSKDFKKMSEAKYQLQKIYNEIDEALKSKY", "ka": "(5.5 ± 0.15) × 10^5 M^−1s^−1", "kd": "(5.1 ± 0.52) × 10^−2 s^−1"}
{"molecule": "SCIN-A.R42A: full-length SCIN-A with Arg-42 alanine mutation (protein) STSLPTSNEYQNEKLANELKSLLDELNVNELATGSLNTYYKATIKISGQKAMYALKSKDFKKMSEAKYQLQKIYNEIDEALKSKY", "ka": "(8.9 ± 0.15) × 10^4 M^−1s^−1", "kd": "(5.8 ± 0.45) × 10^−1 s^−1"}
{"molecule": "SCIN-A.Q49A (protein) STSLPTSNEYQNEKLANELKSLLDELNVNELATGSLNTYYKRTIKISGAKAMYALKSKDFKKMSEAKYQLQKIYNEIDEALKSKY", "ka": "(7.6 ± 2.0) × 10^5 M^−1s^−1", "kd": "(5.1 ± 0.73) × 10^−2 s^−1"}
